The results in this text go back to the nanobody polyreactivity screen of Harvey et al. (2022).

This data set is described as follows: yeast display, Sf9 membrane polyspecificity reagent, FACS + sequencing; frameworks hold sequencing errors. The gist of the method: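 Galactose-induced (36–48 hours) yeast carrying a synthetic nanobody display library were exposed to 10% biotinylated, detergent-solubilized Sf9 membrane reagent at 4 °C for 1 hour. FACS followed streptavidin microbead enrichment, using low and high (top ~1%) gates for expression (anti-HA) and reagent binding (streptavidin). Colony PCR, MiSeq 2 × 250 sequencing and CDR-length filtering followed. Labels for polyreactivity reflect the gate of origin.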
Turning to “QVQLVESGGGLVQAGGSLRLSCAASGTFYKYSMGWYRQAPGKERELVAAISWRGGRTYADSVKGRFTISRDNAKNTVYLQMNSLKPEDTAVYYCNKRFYPEHYYWGQGTQVTVSS”, the “polyreactivity (PSR sort gate)” value was “high polyreactivity”.

For the sequence “QVQLVESGGGLVQAGGSLRLSCAASGTFYYYAMGWYRQAPGKERDLVAGITSGGSTYYADSVKGRFTISRDNAKNTVYLQMNSLKPEDTAVYYCNTKVISRTSERRGNGFTRYDYWGQGTQVTVSS”, the “polyreactivity (PSR sort gate)” value was “low polyreactivity”.

On to “QVQLVESGGGLVQAGGSLRLSCAASGTFYYYAMGWYRQAPGKERELVAAIDYSGGSTYYADSVKGRFTISRDNAKNTVYLQMNSLKPEDTAVYYCAYVSVYDFEFWGQGTQVTVSS”, for which the “polyreactivity (PSR sort gate)” value is listed as “high polyreactivity”.

For the sequence “QVQLVESGGGLVQAGGSLRLSCAASGTIFAANAMGWYRQAPGKERELVAAISSGDGTYYADSVKGRFTISRDNAKNTVYLQMNSLKPEDTAVYYCAARFTYYSGYYAGSYGYWGQGTQVTVSS”, the “polyreactivity (PSR sort gate)” value is “high polyreactivity”.

As to “QVQLVESGGGLVQAGGSLRLSCAASGTIFAPNAMGWYRQAPGKERELVAAISRSGGRTYYADSVKGRFTISRDNAKNTVYLQMNSLKPEDTAVYYCAADYKHQRTYGSWGQGTQVTVSS”, the “polyreactivity (PSR sort gate)” value is “high polyreactivity”.

With “QVQLVESGGGLVQAGGSLRLSCAASGTIFATYAMGWYRQAPGKERELVAAITSSDGSTNYADSVKGRFTISRDNAKNTVYLQMNSLKPEDTAVYYCAKDTPQSYFRYDYLGQGTQVTVSS”, the “polyreactivity (PSR sort gate)” value is on record as “low polyreactivity”.

As to “QVQLVESGGGLVQAGGSLRLSCAASGTIFDDNAMGWYRHAPGKERELVAAISANDGSTYYADSVKGRFTISRDNAKNTVYLQMNSLKQEDTAVYYCAVLRVETVDIWEYDYWGQGTQVTVTS”, the “polyreactivity (PSR sort gate)” value was “low polyreactivity”.

On to “QVQLVESGGGLVQAGGSLRLSCAASGTIFFFYVMGWYRQAPGKERELVAAITYSGGSTFYADSVKGRFTISRDNAKNTVYLQMNSLKPEDTAVYYCAAVYGQWTPLDPYNHWGQGTQVTVSS”, for which the “polyreactivity (PSR sort gate)” value was “low polyreactivity”.

For the sequence “QVQLVESGGGLVQAGGSLRLSCAASGTIFLVYAMGWYIQAPGKERELVAAITFSGGDTYADSVKGRFTISRDNAKNTVYLQMNSLKPEDTAVYYCNAPWPYYGSVVGQDFDYWGQGTQVTVSS”, the “polyreactivity (PSR sort gate)” value was “low polyreactivity”.

Take “QVQLVESGGGLVQAGGSLRLSCAASGTIFQQYAMGWYRQAPGKERELVAAISYSGGTTYYADSVKGRFTISRDNAKNTVYLQMNSLKPEYTSVYYCAAYYPSGSYDYYWGQGTQVTVSS”: the “polyreactivity (PSR sort gate)” value was “low polyreactivity”.

Consider “QVQLVESGGGLVQAGGSLRLSCAASGTIFSRNAMGWYRQAPGKERELVAAINARGGSTYYADSVKGRFTISRDNAKNTVYLQMNSLKPEDTAVYYCAARYGVGRADYYWGQGTQVTVSS”, for which the “polyreactivity (PSR sort gate)” value is given as “high polyreactivity”.

Turning to “QVQLVESGGGLVQAGGSLRLSCAASGTIFTDNVMGWYRQAPGKERELVAAITYSAASTYYADSVKGRFTISRDNAKNTVYLQMNSLKPEDTAVYYCNADDPDYLVSYRYDYWGQGTQVTVSS”, the “polyreactivity (PSR sort gate)” value is listed as “low polyreactivity”.

Consider “QVQLVESGGGLVQAGGSLRLSCAASGTIPGYAMGWYRQAPGKETELVAAITWSDDSTFYADSVKGRFTISRDNAKNTVYLQMNSLKPEDTAVYYCAAEYVVSTQEFDYWGQGTQVTVSS”, for which the “polyreactivity (PSR sort gate)” value was “low polyreactivity”.

Regarding “QVQLVESGGGLVQAGGSLRLSCAASGTISASYAMGWYRQATGKERELVAAISSGGDTNYADSVKGRFTISRDNAKNTVYLQMNSLKPEDTAVYYCAADTDSDQGSEYDYWGQGTQVTVSS”, the “polyreactivity (PSR sort gate)” value was “low polyreactivity”.

Regarding “QVQLVESGGGLVQAGGSLRLSCAASGTTFGRNAMGWYRQAPGKERELVAAITACGGTTYYADSVKGRFTISRDNAKNTVYLQMNSLKPEDTAVYYCARAGHFSFKYDYWGQGTQVTVSS”, the “polyreactivity (PSR sort gate)” value is “low polyreactivity”.

For “QVQLVESGGGLVQAGGSLRLSCAASGTTFPIYAMGWYRQAPGKERELVADITSTGSTDYADSVKGRFTISRDNAKNTVYLQMNSLKPEDTAVYYCAAAWKAYRRYGYWGQGTQVTVSS”, the “polyreactivity (PSR sort gate)” value is “high polyreactivity”.

Consider “QVQLVESGGGLVQAGGSLRLSCAASGTTFYRNAMGWYRQAPGKERELVAAISWTGGRTYYADSVKGRFTISRDNAKNTVYLQMNSLKPEDTAVYYCNKGDSASSLDYWGQGTQVTVSS”, for which the “polyreactivity (PSR sort gate)” value was “high polyreactivity”.

On to “QVQLVESGGGLVQAGGSLRLSCAASGTTISANAMGWYRQAPGKERELVAAIRWSDGRTYYADSVKGRFTISRDNAKNTVYLQMNSLKPEDTAVYYCNRVLSYHRHKLGMGYWGQGTQVTVSS”, for which the “polyreactivity (PSR sort gate)” value is reported as “high polyreactivity”.

For “QVQLVESGGGLVQAGGSLRLSCAASGTTLYYYAMGWSRQAPGKERELVASITKSGASTYYADSVKGRFTISRDNAKNTVYLQMNSLKPEDTAVYYCARDPFWRGYTPRHYNYWGQGTQVTVSS”, the “polyreactivity (PSR sort gate)” value was “low polyreactivity”.

On to “QVQLVESGGGLVQAGGSLRLSCAASGVIFGRYAMGWYREAPGKERELVAAISWGGGSTRYADSVKGRFTISRDNAKNTVYLQMNSLKPEDTAVYYCAAYRYWGRTSYSYDYWGQGTQVTVSS”, for which the “polyreactivity (PSR sort gate)” value was “high polyreactivity”.

Consider “QVQLVESGGGLVQAGGSLRLSCAASGVIFLWYAMGWYRQAPGKERELVARISNGGSTYYADSVKGRFTISRDNAKNTVYLQMISLKPEDTAVYYCNKVYYWIAYGHRSYLMDYWGQGTQVTVSS”, for which the “polyreactivity (PSR sort gate)” value was “high polyreactivity”.

In the case of “QVQLVESGGGLVQAGGSLRLSCAASGVIFNRYAMGWYRQAPGKERELVAAISSGGNTHYADSVKGRFTISRDNAKNTDYLQMNSLKPEDTAVYYCAKAFRHSTFFAPYDYWGQGTQVTVSS”, the “polyreactivity (PSR sort gate)” value was “low polyreactivity”.

For “QVQLVESGGGLVQAGGSLRLSCAASGVIFVNNGMGWYRQAPGKERELVAAISSGGSTNYADSVKGRFTIARDNAKNTDYLQMNSLKPEDTAVYYCAVVDYLWLLQLWLSDYWGQGTQVTVSS”, the “polyreactivity (PSR sort gate)” value is on record as “low polyreactivity”.

“QVQLVESGGGLVQAGGSLRLSCAASGVIFVWYAMGWYRQAPGKERELVAAISSGGSTYYADSVKGRFTISRDNAKNTVYLQMNSLKPEDTAVYYCAADLWYYAYSYDYWGQGTQVTVSS”: the “polyreactivity (PSR sort gate)” value is “high polyreactivity”.

“QVQLVESGGGLVQAGGSLRLSCAASGVTFAHNAMGWYRQAPGKERELVAAITRSGGSTYYADSVKGRFTISRDNAKNTVYLQMNSLKPEDTAVYYCIAGRRGSGYGYWGQGTQVTVSS”: the “polyreactivity (PSR sort gate)” value is recorded as “high polyreactivity”.

With “QVQLVESGGGLVQAGGSLRLSCAASGVTFYAYAMAWYRQAPGKERELVAVISQSGTRTYYADSVKGRFTISRDNAKNTVYLQMNSLKPEDTAVYYCAAPKAQLQPYYYWGQGTQVTVSS”, the “polyreactivity (PSR sort gate)” value is on record as “high polyreactivity”.

Regarding “QVQLVESGGGLVQAGGSLRLSCAASGYAMGWYRQAPGKERELGAAITSGGSTNYADSVKGRFTISRDNAKNTVYLQMNSVKPEDTAVYYCAAAYSLYGHRYDYWGQGTQVTVSS”, the “polyreactivity (PSR sort gate)” value is “low polyreactivity”.

On to “QVQLVESGGGLVQAGGSLRLSCAASGYAMGWYRQAPGKERELVAAISWSGDITYADSVKGRFTISRDNAKNTVYLQMNRLKPEDTAVYYCNADRYTGRDGEQSLDYWGQGTQVTVSS”, for which the “polyreactivity (PSR sort gate)” value is given as “low polyreactivity”.

Turning to “QVQLVESGGGLVQAGGSLRLSCAASGYIFALNAMGWYRQAPGKERELVASITGAGSTNYADSVKGRFTISRDNAKNTVYLQMNSLKPEDTAVYYCAKRTRRRGYYYWGQGTQVTVSS”, the “polyreactivity (PSR sort gate)” value was “high polyreactivity”.

On to “QVQLVESGGGLVQAGGSLRLSCAASGYIFARYAMGWYRQAPGKERELVASISRRGTSTYYADSVKGRFTISRDNAKNTDYLQMNSLKPEDTAVYYCNKEYYIYRTGTIGERSDMGYWGQGTQVTVSS”, for which the “polyreactivity (PSR sort gate)” value was “high polyreactivity”.

Consider “QVQLVESGGGLVQAGGSLRLSCAASGYIFAYYAMGWYRQAPGKERELVATIRSGGSTNYADSVKGRFTISRDNAKNTGYLQMNILKPEDTAVYYCARDDATACDYWGQGSQVTVSS”, for which the “polyreactivity (PSR sort gate)” value is “low polyreactivity”.

Take “QVQLVESGGGLVQAGGSLRLSCAASGYIFDGNAMGLYRQAPGKERELVASISSGTSTYYADSVKGRFTISRDNAKNTVYLQMNSLKPEATAVYYCNAGVEFAASLYYSDNYDYWGQGTQVTVSS”: the “polyreactivity (PSR sort gate)” value is on record as “low polyreactivity”.

As for “QVQLVESGGGLVQAGGSLRLSCAASGYIFDRYAMGWYRQAPGKERELVAAISGRGGSTYYADSVKGRFTISRDNAKNTVYLQMNSLKPEDTAVYYCARDVYVRIGQRARYDSWGQGTQVTVSS”, the “polyreactivity (PSR sort gate)” value was “high polyreactivity”.

For the sequence “QVQLVESGGGLVQAGGSLRLSCAASGYIFDRYAMGWYRQAPGKERELVAAITNGGRTYYADSVKGRFTISRDNAKNTVYLQMNSLKPEDTAVYYCAAVVYSRGYYWGQGTQVTVSS”, the “polyreactivity (PSR sort gate)” value is “high polyreactivity”.

As to “QVQLVESGGGLVQAGGSLRLSCAASGYIFDSNVMGWYRQAPGKERELVARIRWSGGSTYYADSVKGRFTISRDNAKNTVYLQMNSLKPEDTAVYYCNVVSYYIAGGWYEGDYWGQGTQVTVSS”, the “polyreactivity (PSR sort gate)” value is listed as “low polyreactivity”.

On to “QVQLVESGGGLVQAGGSLRLSCAASGYIFDVNTMGWYRQAPGKERELVAVIRRGGSTTYADSVKGRFTISRDNAKNTVYLQMNSLKPEDTAVYYCNARVTLGRPLFTYLVRYEYWGQGTQVTVSS”, for which the “polyreactivity (PSR sort gate)” value was “high polyreactivity”.

Regarding “QVQLVESGGGLVQAGGSLRLSCAASGYIFDYYAMGWYRQAPGKESELVAAISSSGGTTYYADSVKGRFTISRDNAKNTFYLQMNSLKPEDTAVYYCAARKSRWHRGYYYWGQGTQVTVSS”, the “polyreactivity (PSR sort gate)” value was “high polyreactivity”.

For the sequence “QVQLVESGGGLVQAGGSLRLSCAASGYIFEYYAMGWYRQAPGKDRELVAAISWSGGSTYYADSVKGRFTISRDNAKNTVYLQMNSLKPEDTAVYYCAAESYLPYWDSYYRYDYWGQGTQVTVSS”, the “polyreactivity (PSR sort gate)” value is “low polyreactivity”.

For “QVQLVESGGGLVQAGGSLRLSCAASGYIFFFNAMAWYRQAPGKERELVAAITRRGVSTYYADSVKGRFTISRDNAKNTVYLQMNSLKPEDTAVYYCATEHNHLGYYYWGQGTQVTVSS”, the “polyreactivity (PSR sort gate)” value was “low polyreactivity”.

For the sequence “QVQLVESGGGLVQAGGSLRLSCAASGYIFGGYAMGWNRQAHGKERELVAGISIGVGSTYYADSVKGRFTISRDKAKNTVNLQMNSLKPEDTAVYYCNRDSVGYDYWGQGTQVTVSS”, the “polyreactivity (PSR sort gate)” value is recorded as “low polyreactivity”.

“QVQLVESGGGLVQAGGSLRLSCAASGYIFGQNHMGWYRQAPGKERELVAAISSDGSTYYADSVKGRFTISRDNAKNTVYLQMNSLKQEDTAVYYCKYYHQRFPYRQVYYWGQGTQVTVSS”: the “polyreactivity (PSR sort gate)” value is “low polyreactivity”.
